Tests used:
[1] = target: F-actin (skeletal α-actin, polymerized) (rabbit, UniProt P68135 1-377); assay: co-sedimentation; increasing concentrations of cortactin constructs with constant F-actin (4 uM), ATP-supplemented KMEI buffer, 1 h at RT, 30 min at 278,800 g, SDS-PAGE densitometry; settings: both partners purified
[2] = target: Arp3 (subunit of bovine Arp2/3 complex) (bovine, UniProt P61157 1-418); assay: cryo-EM structure; Bovine Arp2/3 complex (9.0 uM) mixed with Cort_(1-76) (45 uM) in ATP-supplemented KMEI buffer (10 mM imidazole pH 7.0, 50 mM KCl, 2 mM MgCl2, 1 mM EGTA, 0.2 mM ATP), 0.0025% NP-40; settings: both partners purified

B1: Cort_(1-79/154-401) (domain or fragment)
chain: MWKASAGHAVSITQDDGGADDWETDPDFVNDVSEKEQRWGAKTVQGSGHQEHINIHKLRENVFQEHQTLKEKELETGPKYSSGFGGKYGVQADRVDKSAVGFDYQGKTEKHESQKDYSKGFGGKYGIDKDKVDKSAVGFEYQGKTEKHESQKDYVKGFGGKFGVQTDRQDKCALGWDHQEKLQLHESQKDYKTGFGGKFGVQSERQDSSAVGFDYKERLAKHESQQDYAKGFGGKYGVQKDRMDKNASTFEEVVQVPSAYQKTVPIEAVTSKTSNIRANFENLAKEREQEDRRKAEAERAQRMAKERQEQEEARRKLEEQARAKKQT
notes: mouse cortactin, UniProt Q60598, residues 1-79, joined directly to residues 154-401; mouse cortactin, UniProt Q60598, residues 154-401; Internal deletion of residues 80-153; fragments ligated through overhangs coding residues 77-79; source: E. coli ArticExpress (DE3), purified (amylose, TEV cleavage, Ni-NTA, size exclusion)
- binding result [1]: binds

B2: Cort_(1-401) (domain or fragment)
chain: MWKASAGHAVSITQDDGGADDWETDPDFVNDVSEKEQRWGAKTVQGSGHQEHINIHKLRENVFQEHQTLKEKELETGPKASHGYGGKFGVEQDRMDRSAVGHEYQSKLSKHCSQVDSVRGFGGKFGVQMDRVDQSAVGFEYQGKTEKHASQKDYSSGFGGKYGVQADRVDKSAVGFDYQGKTEKHESQKDYSKGFGGKYGIDKDKVDKSAVGFEYQGKTEKHESQKDYVKGFGGKFGVQTDRQDKCALGWDHQEKLQLHESQKDYKTGFGGKFGVQSERQDSSAVGFDYKERLAKHESQQDYAKGFGGKYGVQKDRMDKNASTFEEVVQVPSAYQKTVPIEAVTSKTSNIRANFENLAKEREQEDRRKAEAERAQRMAKERQEQEEARRKLEEQARAKKQT
notes: mouse cortactin, UniProt Q60598, residues 1-401; source: E. coli ArticExpress (DE3), purified (amylose, TEV cleavage, Ni-NTA, size exclusion)
- binding result [1]: binds

B3: Cort_(1-227) (domain or fragment)
chain: MWKASAGHAVSITQDDGGADDWETDPDFVNDVSEKEQRWGAKTVQGSGHQEHINIHKLRENVFQEHQTLKEKELETGPKASHGYGGKFGVEQDRMDRSAVGHEYQSKLSKHCSQVDSVRGFGGKFGVQMDRVDQSAVGFEYQGKTEKHASQKDYSSGFGGKYGVQADRVDKSAVGFDYQGKTEKHESQKDYSKGFGGKYGIDKDKVDKSAVGFEYQGKTEKHESQKD
notes: source: E. coli ArticExpress (DE3), purified (amylose, TEV cleavage, Ni-NTA, size exclusion)
- binding result [1]: binds

B4: Cort_(1-76), cortactin N-terminal acidic domain (NTA, residues 1-76) (domain or fragment)
chain: MWKASAGHAVSITQDDGGADDWETDPDFVNDVSEKEQRWGAKTVQGSGHQEHINIHKLRENVFQEHQTLKEKELET
notes: mouse cortactin, UniProt Q60598, residues 1-76; the methods say mouse cDNA; Cloned between BamHI and EcoRI of pMAL-c6T; also called cortactin's N-terminal domain; source: E. coli ArticExpress (DE3), purified (amylose, TEV cleavage, Ni-NTA, size exclusion)
- binding result [2]: binds

Reference: paper PMC10613254, “Mechanism of synergistic activation of Arp2/3 complex by cortactin and WASP-family proteins” (Nature Communications, 2023)
